This note sets out measurements from article PMC9482650, “Quantitative fragmentomics allow affinity mapping of interactomes” (Nature Communications, 2022).

Holding throughout (test): holdup assay
Design in all cases: key: below the threshold = too weak to quantify, mostly under pKd 3.1 to 4

The target of assay [1] is T1, MPDZ_6, O75970.
T1 sequence (O75970 1003-1099, limits assumed, looked up): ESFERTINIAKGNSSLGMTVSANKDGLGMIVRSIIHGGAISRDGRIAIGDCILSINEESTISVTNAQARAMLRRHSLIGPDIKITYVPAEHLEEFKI

Assay [2] concerns the target T2, TJP3_2, O95049.
T2 sequence (O95049 190-282, limits assumed, looked up): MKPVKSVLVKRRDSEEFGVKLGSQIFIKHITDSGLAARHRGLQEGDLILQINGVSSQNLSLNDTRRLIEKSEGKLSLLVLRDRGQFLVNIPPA

Assay [3] concerns the target PTPN13_2, Q12923.
Assay [4] deals with T3, NHERF1_2, O14745.
T3 sequence (O14745 149-244, limits assumed, looked up): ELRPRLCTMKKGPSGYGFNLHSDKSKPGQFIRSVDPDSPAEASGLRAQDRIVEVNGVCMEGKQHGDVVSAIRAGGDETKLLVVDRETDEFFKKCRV

The target in assay [5] is LMO7, Q8WWI1.
For assay [6], the target named is T4, PREX2_2, Q70Z35.
T4 sequence (Q70Z35 672-764, limits assumed, looked up): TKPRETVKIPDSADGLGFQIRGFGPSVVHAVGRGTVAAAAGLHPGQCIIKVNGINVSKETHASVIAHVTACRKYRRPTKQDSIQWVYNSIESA

Assay [7] concerns the target T5, MPDZ_13, O75970.
T5 sequence (O75970 1982-2070, limits assumed, looked up): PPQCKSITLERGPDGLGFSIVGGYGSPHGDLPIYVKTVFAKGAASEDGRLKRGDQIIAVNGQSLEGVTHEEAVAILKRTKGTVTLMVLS

Assay [8] has as its target DLG2_1, Q15700.
Assay [9] has as its target MAGIX, Q9H6Y5.
Assay [10] concerns the target T6, PDLIM3, Q53GG5.
T6 sequence (Q53GG5 1-94, limits assumed, looked up): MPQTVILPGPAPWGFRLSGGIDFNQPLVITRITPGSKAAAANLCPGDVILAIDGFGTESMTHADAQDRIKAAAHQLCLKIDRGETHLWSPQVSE

Assay [11] addresses MAGI3_4, Q5TCQ9.
Assay [12] concerns the target MAGI1_5, Q96QZ7.
Assay [13] has as its target MAGI1_3, Q96QZ7.
Assay [14] concerns the target T7, MLLT4, P55196.
T7 sequence (P55196 1002-1103, limits assumed, looked up): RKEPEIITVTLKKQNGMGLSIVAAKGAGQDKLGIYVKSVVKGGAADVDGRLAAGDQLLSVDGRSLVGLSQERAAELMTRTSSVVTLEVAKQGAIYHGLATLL

In assay [15] the target is PARD3B_2, Q8TEW8.
The target in assay [16] is T8, SNTB2, Q13425.
T8 sequence (Q13425 110-208, limits assumed, looked up): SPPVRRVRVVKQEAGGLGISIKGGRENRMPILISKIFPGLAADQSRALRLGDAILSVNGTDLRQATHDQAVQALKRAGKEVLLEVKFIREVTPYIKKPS

For assay [17], the target named is T9, PDZD2_6, O15018.
T9 sequence (O15018 2745-2839, limits assumed, looked up): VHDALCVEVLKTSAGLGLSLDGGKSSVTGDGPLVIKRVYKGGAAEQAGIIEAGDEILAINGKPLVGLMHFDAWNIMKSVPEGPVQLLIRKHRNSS

Assay [18] concerns the target T10, TJP3_1, O95049.
T10 sequence (O95049 6-103, limits assumed, looked up): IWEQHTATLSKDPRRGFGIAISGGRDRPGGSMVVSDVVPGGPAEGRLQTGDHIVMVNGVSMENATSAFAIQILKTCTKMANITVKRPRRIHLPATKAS

Assay [19] concerns the target T11, LNX2_4, Q8N448.
T11 sequence (Q8N448 595-690, limits assumed, looked up): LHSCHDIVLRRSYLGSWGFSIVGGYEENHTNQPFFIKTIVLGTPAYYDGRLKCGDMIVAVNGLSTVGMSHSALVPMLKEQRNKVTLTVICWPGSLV

Assay [20] deals with T12, PDZD2_5, O15018.
T12 sequence (O15018 2617-2716, limits assumed, looked up): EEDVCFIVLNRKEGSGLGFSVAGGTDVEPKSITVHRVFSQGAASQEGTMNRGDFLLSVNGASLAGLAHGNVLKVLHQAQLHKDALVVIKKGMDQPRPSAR

The target of assay [21] is AHNAK2, Q8IVF2.
The target of assay [22] is T13, SHROOM2, Q13796.
T13 sequence (Q13796 21-118, limits assumed, looked up): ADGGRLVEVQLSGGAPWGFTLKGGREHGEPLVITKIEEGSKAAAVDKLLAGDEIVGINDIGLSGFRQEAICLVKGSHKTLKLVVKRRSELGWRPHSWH

In assay [23] the target is T14, MPDZ_7, O75970.
T14 sequence (O75970 1146-1253, limits assumed, looked up): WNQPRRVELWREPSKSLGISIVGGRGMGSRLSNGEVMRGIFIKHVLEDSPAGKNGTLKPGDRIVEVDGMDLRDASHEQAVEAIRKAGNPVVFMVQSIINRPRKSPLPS

Where [24] appears, read: plain residues with an end cap or a label only (N-terminal biotin on a linker: none).
Where [25] appears, read: plain residues with an end cap or a label only (N-terminal biotin on a linker: ttds).

Chain of PTPN13_2, Q12923 (Q12923 1363-1462): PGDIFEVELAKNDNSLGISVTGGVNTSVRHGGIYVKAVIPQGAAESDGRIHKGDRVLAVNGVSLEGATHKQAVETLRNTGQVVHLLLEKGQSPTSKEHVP
Chain of PARD3B_2, Q8TEW8 (Q8TEW8 376-471): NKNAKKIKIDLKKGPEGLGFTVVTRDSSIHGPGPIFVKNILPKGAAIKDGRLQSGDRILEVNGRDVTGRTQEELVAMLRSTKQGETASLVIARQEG
Chain of LMO7, Q8WWI1 (Q8WWI1 1037-1138): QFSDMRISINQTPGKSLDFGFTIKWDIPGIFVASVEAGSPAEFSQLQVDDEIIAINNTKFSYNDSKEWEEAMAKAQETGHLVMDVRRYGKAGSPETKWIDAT
Chain of MAGI1_5, Q96QZ7 (Q96QZ7 986-1098): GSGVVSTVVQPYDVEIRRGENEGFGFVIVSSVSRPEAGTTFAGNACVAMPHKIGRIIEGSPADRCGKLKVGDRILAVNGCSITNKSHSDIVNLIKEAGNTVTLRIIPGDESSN
Chain of AHNAK2, Q8IVF2 (Q8IVF2 108-193): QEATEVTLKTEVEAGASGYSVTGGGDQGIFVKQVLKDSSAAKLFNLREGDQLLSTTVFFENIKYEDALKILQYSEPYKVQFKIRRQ
Chain of MAGIX, Q9H6Y5 (Q9H6Y5 118-211): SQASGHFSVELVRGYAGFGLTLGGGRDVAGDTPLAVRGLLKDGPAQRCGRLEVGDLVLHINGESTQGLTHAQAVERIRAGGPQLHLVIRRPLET
Chain of MAGI3_4, Q5TCQ9 (Q5TCQ9 716-815): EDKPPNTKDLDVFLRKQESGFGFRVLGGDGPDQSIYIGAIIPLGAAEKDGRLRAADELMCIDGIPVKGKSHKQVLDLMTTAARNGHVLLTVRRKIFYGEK
Chain of MAGI1_3, Q96QZ7 (Q96QZ7 638-725): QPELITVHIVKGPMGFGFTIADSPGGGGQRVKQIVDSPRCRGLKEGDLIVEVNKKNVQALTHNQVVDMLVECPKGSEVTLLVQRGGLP

B1: SARS-CoV2-E, P0DTC4 (peptide)
chain: NLNSSRVPDLLV
As for B1, the pKd result in assay [1] (setting [24]) is “below the threshold”; in assay [2] (setting [24]), “below the threshold”; in assay [3] (setting [24]) it was “below the threshold”; in assay [4] (setting [24]), 4.76; in [5] (setting [24]), “below the threshold”; in assay [6] (setting [24]), “below the threshold”. For the same molecule, the pKd result in assay [7] (setting [24]), in assay [8] (setting [24]), in [9] (setting [24]), in assay [10] (setting [24]), in assay [11] (setting [24]) and in [12] (setting [24]) was “below the threshold” each time. The pKd entry in assay [13] (setting [24]) is “below the threshold”; in assay [14] (setting [24]), 4.1; in [15] (setting [24]), “below the threshold”; in [16] (setting [24]), “below the threshold”; in assay [17] (setting [24]), 4.07; in assay [18] (setting [24]) it was “below the threshold”. Moreover, the pKd result in assay [19] (setting [24]), in assay [20] (setting [24]), in assay [21] (setting [24]), in [22] (setting [24]) and in assay [23] (setting [24]) was “below the threshold” in each case.

B2: DOCK4, Q8N1I0 (peptide)
chain: RPLPRKVSQL
On to B2, for which the pKd entry was “below the threshold” in [1] (setting [25]); “below the threshold” in [2] (setting [25]); “below the threshold” in [3] (setting [25]); 4.45 in assay [4] (setting [25]); “below the threshold” in assay [5] (setting [25]); “below the threshold” in assay [6] (setting [25]). Besides, the pKd entry in assay [7] (setting [25]) was “below the threshold”; in [8] (setting [25]), “below the threshold”; in [9] (setting [25]), “below the threshold”; in [10] (setting [25]), “below the threshold”; in [11] (setting [25]) it was 4.12; in assay [12] (setting [25]), “below the threshold”. Moreover, the negative logarithm of the Kd (pKd) entry in [13] (setting [25]), in assay [14] (setting [25]), in [15] (setting [25]), in [16] (setting [25]), in assay [17] (setting [25]) and in [18] (setting [25]) was “below the threshold” each time. Moreover, the pKd result in assay [19] (setting [25]), in assay [20] (setting [25]), in [21] (setting [25]), in assay [22] (setting [25]) and in [23] (setting [25]) was “below the threshold” in each case.

B3: HPV73-E6, Q82005 (peptide)
chain: SGSRPSATVV
Take B3: the pKd entry in assay [1] (setting [25]), in [2] (setting [25]), in assay [3] (setting [25]), in [4] (setting [25]), in assay [5] (setting [25]) and in [6] (setting [25]) was “below the threshold” in each case. Also, the pKd result in assay [7] (setting [25]) is “below the threshold”; in assay [8] (setting [25]), “below the threshold”; in assay [9] (setting [25]), “below the threshold”; in assay [10] (setting [25]), “below the threshold”; in assay [11] (setting [25]) it was “below the threshold”; in assay [12] (setting [25]) it was 4.11. Also, the pKd entry in assay [13] (setting [25]) is “below the threshold”; in assay [14] (setting [25]), “below the threshold”; in [15] (setting [25]), 4.24; in [16] (setting [25]) it was 4.13; in [17] (setting [25]), “below the threshold”; in [18] (setting [25]), 4.21. Besides, the pKd entry in assay [19] (setting [25]), in assay [20] (setting [25]), in [21] (setting [25]), in [22] (setting [25]) and in assay [23] (setting [25]) was “below the threshold” throughout.

B4: FRMPD4, Q14CM0 (peptide)
chain: RLPKIKETTV
Turning to B4, the pKd result is “below the threshold” in assay [1] (setting [25]); “below the threshold” in [2] (setting [25]); 4.31 in [3] (setting [25]); “below the threshold” in assay [4] (setting [25]); 4.45 in [5] (setting [25]); 4.25 in [6] (setting [25]). The pKd entry in assay [7] (setting [25]) is “below the threshold”; in assay [8] (setting [25]), 5.32; in assay [9] (setting [25]), “below the threshold”; in assay [10] (setting [25]), 4.24; in [11] (setting [25]), “below the threshold”; in assay [12] (setting [25]), 4.5. The pKd is 4.82 in assay [13] (setting [25]); “below the threshold” in [14] (setting [25]); “below the threshold” in assay [15] (setting [25]); 5.36 in assay [16] (setting [25]); “below the threshold” in [17] (setting [25]); “below the threshold” in assay [18] (setting [25]). Besides, the pKd result in assay [19] (setting [25]), in assay [20] (setting [25]), in assay [21] (setting [25]), in assay [22] (setting [25]) and in assay [23] (setting [25]) was “below the threshold” in each case.
